Assay results taken from patent US20260327578A1, “TRANSGLUTAMINASES AND USES THEREOF” (CURIE CO. INC., priority 2023, published 2026).

Key:
N,N-dimethylcasein = assay: Rate of product formation over 60 minutes (protein functionalization assay); type: biochemical; design: key: −: a reduction in activity; +: an improvement between 1.2 and 2-fold; ++: an improvement between 2 and 5-fold; +++: an improvement greater than 5-fold; settings: improvement relative to wild-type Tgase (SEQ ID NO: 2); initial rate over 60 min
Experimental: Enzymatic “productivity” is a measure of product formation or substrate disappearance over time, at a prescribed temperature under specified reaction conditions. It is the measure both the durability and reaction yield of the enzyme variant. In this instance, productivity is defined as total product formed over 24-hours at a constant substrate concentration when the enzyme is the rate limiting factor. The time is defined as 24 hours, which represents approaching or surpassing burnout, denaturation, or self-reaction of the enzyme variant. In other words, variants with higher productivity deliver a higher product yield in 24-hours than variants with lower productivity produce in the same period of time. “Rate” refers to the initial rate for an enzymatic reaction, at a prescribed temperature under specified reaction conditions. The enzyme produces product at an initial rate that is approximately linear for a short period after the start of the reaction. When concentrations of enzyme and substrate are the same across the sample set, initial rates between enzyme variants can be compared. In this instance, the linear range for production of product occurs in one hour. Enzyme variants with faster initial rates deliver a higher product yield in one hour than variants with slower initial rates produce at the same time-period. In some cases, improvements to initial rates also deliver a more productive variant. In some cases, improvements to initial rates result in faster decay of the enzyme variant reducing overall enzymatic productivity. Productivity and rate may be assessed as described in Example 2.
Table 6 depicts variants of Streptomyces mobaraensis Tgase and improvement to productivity and/or rate relative to wild-type Tgase (SEQ ID NO. 2) as determined in Example 3. Numbering of amino acid positions is in reference to the mature S. mobaraensis Tgase sequence depicted in SEQ ID NO. 2. A “−” indicates a reduction in activity. A “+” indicates an improvement between 1.2 and 2-fold. A “++” indicates an improvement between 2 and 5-fold. A “+++” indicates an improvement greater than 5-fold.
Rate was assessed by measuring the rate of product formation over 60 minutes of incubation using a kinetic method to take scans every 60 seconds to determine product formation, using reaction conditions as described in Example 4B. The enzyme produces product at an initial rate that is approximately linear for the first one hour of the reaction. The concentrations of enzyme and substrate are the same across the sample set for each enzyme variant. Enzyme variants with faster initial rates deliver a higher product yield in one hour than variants with slower initial rates produce at the same time-period.
Protein functionalization by Tgase variants was determined by the fluorogenic labeling of casein using monodansylcadaverine (e.g., a commercially available kit such as the Transglutaminase Fluorogenic Activity Assay Kit, T036, Zedira, Germany). Tgase activity was monitored by measuring fluorescence (excitation wavelength 332 nm; emission wavelength 500 nm) using a BioTek Synergy H1 microplate reader. Transglutaminase-catalyzed covalent coupling (crosslinking) of monodansylcadaverine with N,N-dimethylcasein produces a product that causes a shift in intensity and wavelength of fluorescence of the dansyl group now linked to the casein. The relative transglutaminase activity is shown by increase of fluorescence intensity over time. Enzyme variant loading was optimized based on expression levels, ensuring enzyme was the rate limiting factor. Briefly, cell-free reactions (set up as described in Example 2A) were first diluted 10-fold using phosphate buffer, pH 7.4, and a 5 microliter aliquot was analyzed.

E. coli = assay: Preservative efficacy in body lotion against E. coli; type: cell-based; settings: 0.005% in combinations, phenoxyethanol 0.7% alone, 0.3% combined, caprylyl glycol 0.7% alone, 0.35% combined, sodium benzoate 0.5% + EDTA 0.5%, 2% 2:1 propanediol:hexanediol, 0.5% CHA solution
Experimental: A vessel was filled with deionized water, placed under an overhead stirrer set to moderate mixing, and heated to 75-80° C. Glycerin was added to 2% and mixed until dissolved, followed by xanthan gum to 0.2%. At 75-80° C., cetearyl glucoside and cetearyl alcohol were added to 4% and 3%. Once both had melted fully, milk thistle seed oil was added and the batch was homogenized with a Silverson homogenizer with the standard emulsion screen until the batch had turned milky white. The batch was removed from heat and returned to propellor mixing with decreased speed to allow the emulsion to set up. At 40° C., pH was adjusted to pH 5.5-6.0 using citric acid or sodium hydroxide and split into several portions and allowed to finish cooling. Once cooled to room temperature, one portion of the body lotion was left unpreserved and the remaining portions were preserved with one or more substances selected from aseptilase, phenoxyethanol, caprylyl glycol, sodium benzoate, and EDTA. All samples were inoculated with E. coli (10^6 CFU/mL) and C. albicans (10^5 CFU/mL) and plated after 2 and 7 days.

B1: A3: Tgase variant S2P Q50S Q74A K91H Q124L K151R K152R N282M G283A relative to SEQ ID NO: 2 (protein, UniProt P81453 77-407, looked up, variant S2P Q50S Q74A K91H Q124L K151R K152R N282M G283A)
Protein-glutamine …: DPDDRVTPPAEPLDRMPDPYRPSYGRAETVVNNYIRKWQQVYSHRDGRKSQMTEEQREWLSYGCVGVTWVNSGAYPTNRLAFASFDEDRFHNELKNGRPRSGETRAEFEGRVAKESFDEEKGFLRAREVASVMNRALENAHDESAYLDNLRRELANGNDALRNEDARSPFYSALRNTPSFKERNGGNHDPSRMKAVIYSKHFWSGQDRSSSADKRKYGDPDAFRPAPGTGLVDMSRDRNIPRSPTSPGEGFVNFDYGWFGAQTEADADKTVWTHGNHYHAPMASLGAMHVYESKFRNWSEGYSDFDRGAYVITFIPKSWNTAPDKVKQGWP
Rate (N,N-dimethylcasein): − | Preservative efficacy against E. coli, log reduction (E. coli; day 2, aseptilase 0.01% alone): 1.71 log reduction in CFU/mL | Preservative efficacy against E. coli, log reduction (E. coli; day 7, aseptilase 0.01% alone): 3.45 log reduction in CFU/mL
